The nanobody polyreactivity screen of Harvey et al. (2022)

Experiment: yeast display, Sf9 membrane polyspecificity reagent, FACS + sequencing; frameworks hold sequencing errors
Method in brief: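 In a synthetic yeast display library (Saccharomyces cerevisiae BJ5465), nanobody expression was induced with galactose for 36–48 hours. FACS gates were set low and high (top ~1%) using anti-HA fluorescence for expression and streptavidin fluorescence for binding of the Sf9 membrane reagent. Each polyreactivity label is drawn from the gate of origin.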

QVQLVESVGCLVQPGGSLRLSCATSGSIFLLYARGWYRQPPGKERELVAAITSSGGSTNYADSVKGRITISRDTAKNTVYLQMNSLKPEDTEVYYSATAPYAYTILGSRFDYWGKGTQVTVSS
polyreactivity (PSR sort gate): low polyreactivity

QVQLVESGGGLVQAGGSLRLSCAASGIIFGRYTMGWSRQAPGKERELVAAITSSGITYYADSVKGRFTISRDNAKNTVYLQMNSLKPEDTAVYYCIADYSSPGYYWPYDYWGQGTQVTVSS
polyreactivity (PSR sort gate): low polyreactivity

QVQLVESGGGLVQAGGSLRLSCAASGRTFYSNTMGWYRQSPGKERELVAAIDWSGGRTYYADSVKGRFTISRDNAKNTVYLQMHSLKPEDTAVYYCNTVGYSLRLRTGGYWGQGTQVTVSS
polyreactivity (PSR sort gate): high polyreactivity

QVQLVESGGGLVQAGGSLRLSCAASGSISYRYAMGWYRQAPGKERELVAGISRSGGSTSYADSVKGRFTISRDNAKNTVYLQMNSLKPEDTAVYYCNRPSSLAWPWTGSFSRYDYWGQGTQVTVSS
polyreactivity (PSR sort gate): low polyreactivity

QVQLVESGGGLVQAGGSLRLSCAASGSIFPAYDMGWYRQAPGKERELVAAIDRGGSTYYADSVKGRFTISRDNAKNTVYLQMNSLKPEDTAVYYCATDGQEYPNYISSAGFDYWGQGTQVTVSS
polyreactivity (PSR sort gate): low polyreactivity

QVQLVESGGGLVQAGGSLRLSCAASGRTFQYYAMGWYRQAPGKERELVAAINQGGGRTYYADSVKGRFTISRDTAKNTVYLQMNSLKPEDTAVYYCAADGLSKFDYWGQGTQVTVSS
polyreactivity (PSR sort gate): low polyreactivity

QVQLEESGGGLVQAGGSLRLSCAASGLIFRYYVMGWYRQAPGKERELVAGITSSGGSTYYADSVKGRFTISRDNAKNTVYLQMNSLKPEDTAVYYCNKGGISGRDYWGQGTQVTVSS
polyreactivity (PSR sort gate): high polyreactivity

QVQLVESGGGLVQEGGSLRLSCSASGSIFYVYAMGRYRPARGKDRELVAAISSIDGNTYYADSVKGRFTISRDNAKNTVYLQMNSLKPEETAVYYCAAAYYNTDYYYWGKGTQVTVSS
polyreactivity (PSR sort gate): low polyreactivity

QVQIVESGGGLVQAGGSLRLSCAASGLTLGRNAMGWYRQAPGKERELVAAITQSGGSTYYADSVKGRFTISRDNAKNTVYLQMNSLKPEDTAVYYCAAEVVRQWHGIGYDYWGHGTQVTVSS
polyreactivity (PSR sort gate): low polyreactivity

QVQLVESGAGLVQAGGILRLSCAASGRTFYRNTMGWYRQAPGKEREFVAAISATAGRTYYADSVKGRFTISRDNAKNTVYLQMNSLKPEDTAVYYCAAVPLRNRLPNSWPALDYWGQGTQVTVSS
polyreactivity (PSR sort gate): high polyreactivity

QVQLVESGGGLVQAGGSLRLSCAASGFTFGYYSMGWYSQAPGKERELVAAISSGGNTNYADSVKGRFTISRDNAKNTVYLQMNSLKPEDTAVYYCNSRSWRYYKTYSAFNYWGQGTQVTVSS
polyreactivity (PSR sort gate): high polyreactivity

QVQLVESGGGLVQAGGSLRLSCAASGRTFGGYAMGWYRQAPGKESELVARISRSGGSTYYADSVKGRFTISRDNAKNTVYLQMNSLKPEDTAVYYCNTGLRNAYGWPQDDYWGQGTQVTVSS
polyreactivity (PSR sort gate): low polyreactivity

QVQLVESGGALVQAGGSLRLSCAASGFTFYKNAMGWYRQAPGKERELVAAISRSAGSTYYADSVKGRFTISRDNAKNTVYFQMNSLKPEDTAVYYCNAVSDVKRYDYWGQGTQVTVSS
polyreactivity (PSR sort gate): high polyreactivity

QVQLVESGGGLVQAGGSLRLSCAASGSTFRYNAMGWYRQAPGKEREMVATITWSGGSTYYADSVKGRFTISRDNAKNTVYLQMNSLKPEDTAVYYCAKLPFPVYYGGSYKYYYWGLGTQVTVSS
polyreactivity (PSR sort gate): high polyreactivity

QVQLVESGGGLVQAGGSLLLSCAASGYTFGTYDMGWYRQAPGKERELVAAISIGGSTNYADSVKGRFTISRDNAKNTVYLQMNSLKPEDTAVYYCAAEVNVGTLLLSVIVEDGDYWGQGTQVTVSS
polyreactivity (PSR sort gate): low polyreactivity

QVQLVESGGGLVQAGGSLRLSCAASGFTFAFYAMGWYRQAPGKERELVAAITGSGGSTYYADSVKGRFTISRDNAKNTVYLQMNSLKPEDTAVYYCAADKYLDYDYWGQGTQVTVSS
polyreactivity (PSR sort gate): high polyreactivity

QVQLVESGGGLVQAGGSLRLSCAASGFTLDPYAMGWYRQAPGKERELVAAIRLSGSSTYYADSVKGRFTISRDNAKNTVYLQMNSLKPEDTAVYYCAADGISHWMYRYDYWGQGTQVTVSS
polyreactivity (PSR sort gate): low polyreactivity

QVQLVESGGGLVQAGGSLRLSCAASGFTFDYYAMGWYRQAPGKERELVATINGASSTNYADSVKGRFTISRDNAKNTVYLQMNSLKPEDTAVYYCNARYYGPDFVLAYDYWGQGTQVTESS
polyreactivity (PSR sort gate): low polyreactivity

QVQLVESGGGLVQAGGSLRLSCAASGRTFYHYAMGLYRQAPGKERELVAALNRVGGTNYADSVKGRFTISRDNAKNTVYLQMNSLKPEDTAVYYCNADIVARSSYSTKYEEFYYWGLGTQVTVSS
polyreactivity (PSR sort gate): low polyreactivity

QVQLVESGGGLVQAGGSLLLSCAASGRIFRVYAMGWYRQAPGKERELVASITTSGSTYYADSVKGRFTISRDNAKNTVYLQMNSLKPEDTAVYYCAVDNYYTPWYPYLGYDSWGQGTQVTVSS
polyreactivity (PSR sort gate): low polyreactivity

QVQLVESGGGLVQAGGSLRLSCAASGSTFPRYAMGWYRQAPGKERELVAAISGRGGSTYYADSVKGRFTISRDYAKNTVYLQMNSLKPEDTAVYYCNAYRRYYTMYYWGQGTQVTVSS
polyreactivity (PSR sort gate): high polyreactivity

QVQLVESGGGLVQAGGSLRLSCAASGSTFAVYAMGWYRQAPGKERELVAAITRSGGDTYYADSVKGRFTISRDNAKNTVYLQMNSLKPEDTAVYYCAAAPRYGEEYWGQGTQVTVSS
polyreactivity (PSR sort gate): low polyreactivity

QVQLVESGGGLVQAGGSLRLSCAASGLIFRGYAMGWYRQAPGKERELVAAISSIAGSTYYADSVKGRFTISRDNAKNTVYLQMNSLKPEDTAVYYCAARSRWTFRDYYYWGQGTQVTVSS
polyreactivity (PSR sort gate): high polyreactivity

QVQLVESGGGLVQAGGSLRLSCAASGSTFHAYAMGWYRQAPGKERELVAGISWSGGDTTYADSVKGRFTISGDNAKNTVYLQMNSLKPEDTAVYYCAAAGRDPDNYLILNYWGQGTQVTVSS
polyreactivity (PSR sort gate): low polyreactivity

QVQLVESGGGLVQAGGSLRLSCAASGRTLFWNAMGWYRQAPGKEREFVAAIRWRGGSTYYADSVKGRFTISRDNAKNTVYLQMNSLKPEDTAVYYCGAAVRPYKRQDDYWGQGTQVSVSS
polyreactivity (PSR sort gate): high polyreactivity

QVQLVESGGGLVQAGGSLRLCCAASGYIFGWYTMGWYRPAPGKERELVAAISGGGRTYYADSVKGRFTISRDNAKNTVYLQKNSLKPEDTAVYYCNAYSTYIKYDYWGQGTQVTVSS
polyreactivity (PSR sort gate): high polyreactivity

QVQLEESGGGLVQAGGSLRLSCAASGFTLPANGMGWYRQAPGKERELVAAISFIAGSTYYADSVKGRFTISRDNAKNTVYLQMNSLKPEDTAVYYCSTQFPPSTIYDYWGQGTQVTVSS
polyreactivity (PSR sort gate): low polyreactivity

QVQLVESGGGLVQAGGSLRLSCAASGRTFYTYAMGWYIQAPGKEREFVAAIRFSGGNTYYADSVKGRFTISRDNAKNTVYLQMKSLKPEDTAVYYCAARRLLYKYWTGGPYDYWGQGTQVTVSS
polyreactivity (PSR sort gate): high polyreactivity

QVQLVESGGGLVQAGGSLRLSCAASGRTVGVYAMGWYRQAPGKERELVATITSGASTNYADSVKARFTISRDNAKNTVYLQMTSLKPEDTAVYYCNARRVAYASYSHPRVLDDYWGQGTQVTVST
polyreactivity (PSR sort gate): low polyreactivity

QVQLVESGGGLVQAGGSLRLSCAASGSTLSKYAMGWYRQAPGKERELVATISIRGGNTYYADSVKGRFTFSRDNAKNTVYLQMNSLKPEDTAVYYCAARRVNAPPSYRQKAGYDYWGQGTQVTVSS
polyreactivity (PSR sort gate): high polyreactivity

QVQLVESGGGLVQAGGSLRLSCAASGRIFQGYVMGWYRQAPGKERELVAAITTGGSTYYADSVKGRFTISRDNAKNTVYLQMNSLKPEDTAVYYCNAVVYVSGYNPYIFGYWGQGTQVTVSS
polyreactivity (PSR sort gate): low polyreactivity

QGQRVESGGGLVQAGGSLRLSCAASGSIFSYNTMGWYRQAPGKEREFVATIDWRDGSTYYADSVKGRFTISRDNAKNTVYLQMNSLKPEDTAVYYCATYYIVVEDNYWGQGTQVTVSS
polyreactivity (PSR sort gate): high polyreactivity

QVQLVESGGGLIQAGGSLRLSCAASGSTFANNAMGWYRQAPGKERELVASITRSGSTYYADSVKGRFTISRDNAKNTVYLQMNSLKPEDTAVYYCAADSRRYGVRFDYWGQGTQVTVSS
polyreactivity (PSR sort gate): low polyreactivity

QDQLVESGGGLVQAGGSLRLTCAASGFTFRRNAMGWYRQAPGKERELVAAISSRGGSTYYADSVKGRFTISRDNAKNTVYLQMNSLKPEDTAVYYCAAYYVPWGTLYHLDYWGQGTQVTVSS
polyreactivity (PSR sort gate): high polyreactivity

QVQLVESGGGLVQAGGSLRLSCAASGFTFPHYAMGWYRQAPGKERELVARIRWGGGSTYYADSVKGRFTISRDNAKNTVYLQMNSLKPEDTAVYYCARTTSYLTSTRRYYYWGQGTQVTVSS
polyreactivity (PSR sort gate): high polyreactivity

QVQLVESGGGLVQAGGSLRLSCAASGRTFGYYVMGWYRQAPGKERELVAAISQSGGSTYYADSVKGRFTISRDNAKNTVYLQMNSLKPEDTAVYYCAKRGWRTFQGGYWGQGTQVTVSS
polyreactivity (PSR sort gate): high polyreactivity

QVQLVESGGGLVQAGGSLRLSCAASGSNFWSNAMRWYRQAPGKERELVATIDDDVGSTYYADSVKGRFTISRDNAKNTVYFQMNSLKPEDTAVYYCAADTSGADAYTKVRDGYDYWGQGTQVSVSS
polyreactivity (PSR sort gate): low polyreactivity

QVQIEESGGGLVQAGGSHRLSCAASGSTSYWYAMGWSRQAPRKERELVAAISSDDSTNYADSVKGRFTISRDNAKNTVYLQMNSLKPEDTAVYYFNREHYLIRYDYWGQGTQVTVSS
polyreactivity (PSR sort gate): low polyreactivity

QVQLVESGGGLVQAGGSLRLSCAASGRIFTTNAMGWYRQAPGKERELVASISKSGGSTYYADSVKGRFTISRDTAKNTVYLQMNSLKPEDTAVYYCAASSYSTSYIRGDYWGQGTQVTVSS
polyreactivity (PSR sort gate): low polyreactivity

QVQLVESGGGLVQAGGSLRLSCAASGRTLVLNMGWYRQAPGKERELVATINSGGSTYYADSVKGRFTISRDNAKNTVYLQMNSLKPEDTAVYYCAVLSSDGKFDYWGQGTQVTVSS
polyreactivity (PSR sort gate): low polyreactivity

QVQLVESGGGLVQAGGSLRLSCAASGRIFPVYAMGWYRQAPGKERELVATISYSGSSTYYADSVKGRFTISRDNAKNTVYLQMNSLKPEDTAVYYCNADAFGPPGVQYYYWGQGTQVTVSS
polyreactivity (PSR sort gate): low polyreactivity

QVQLVESGGGLVQAGGSLRFICAASGRTFDWYAMGWYRPAPGKERELVAGNSWSGGSTYYADSVKGRFTISRDNAKNTVYLQMNSLKPEDTAVYYCAAEYPFEIGYVYYYIDYDYWGQGTQVTVSS
polyreactivity (PSR sort gate): low polyreactivity

QVQLVESGGGLVQAGGSLRLSCAASGSILTVYSMGWYRQAPGKERELVARIRSGDRTYYADSVKGRFTISRDNAKNTVYLQMNSLKPEDTAVYYCAAGSQRRYYHTNWDSFNYWGQGTQVTVSS
polyreactivity (PSR sort gate): low polyreactivity
